The Immune Epitope Database (IEDB)

How the values were obtained:
HLA-B*44:02 = experiment: IEDB peptide-MHC binding, purified MHC/direct/fluorescence; filed as Kd, often an IC50 or EC50 that approximates it; ≥ and ≤ were set here for values at or beyond the usual limits of such assays; conditions: source organism: Salmonella enterica
HLA-B*08:01 = experiment: as above; conditions: source organism: Salmonella enterica
HLA-B*15:01 [1] = experiment: as above; conditions: source organism: Salmonella enterica
HLA-A*11:01 [2] = experiment: as above; conditions: source organism: Salmonella enterica
HLA-A*26:01 = experiment: as above; conditions: source organism: Salmonella enterica
HLA-B*58:01 = experiment: as above
HLA-A*24:03 = experiment: as above; conditions: source organism: Salmonella enterica
HLA-A*03:01 = experiment: as above
HLA-A*02:01 [3] = experiment: as above
HLA-A*31:01 = experiment: as above
HLA-A*01:01 [4] = experiment: as above
HLA-B*07:02 = experiment: as above; conditions: source organism: Salmonella enterica
HLA-B*27:05 = experiment: as above
HLA-B*40:01 = experiment: as above
HLA-A*69:01 = experiment: as above
HLA-A*02:50 = experiment: IEDB peptide-MHC binding, purified MHC/competitive/fluorescence; filed as Kd, often an IC50 or EC50 that approximates it; ≥ and ≤ were set here for values at or beyond the usual limits of such assays
HLA-C*05:01 = experiment: IEDB peptide-MHC binding, purified MHC/direct/fluorescence; filed as Kd, often an IC50 or EC50 that approximates it; ≥ and ≤ were set here for values at or beyond the usual limits of such assays
HLA-B*51:01 [5] = experiment: IEDB peptide-MHC binding, purified MHC/competitive/fluorescence; filed as Kd, often an IC50 or EC50 that approximates it; ≥ and ≤ were set here for values at or beyond the usual limits of such assays
HLA-B*15:17 [6] = experiment: IEDB peptide-MHC binding, purified MHC/direct/fluorescence; filed as Kd, often an IC50 or EC50 that approximates it; ≥ and ≤ were set here for values at or beyond the usual limits of such assays; conditions: source organism: West Nile virus
HLA-C*03:03 = experiment: as above
HLA-B*57:01 [7] = experiment: as above; conditions: source organism: West Nile virus
HLA-B*35:01 = experiment: IEDB peptide-MHC binding, purified MHC/competitive/fluorescence; filed as Kd, often an IC50 or EC50 that approximates it; ≥ and ≤ were set here for values at or beyond the usual limits of such assays; conditions: source organism: West Nile virus
HLA-A*24:02 = experiment: IEDB peptide-MHC binding, purified MHC/competitive/fluorescence; ≥ and ≤ were set here for values at or beyond the usual limits of such assays; conditions: source organism: Zaire ebolavirus
HLA-A*01:01 [8] = experiment: as above; conditions: source organism: Zaire ebolavirus
HLA-B*18:01 = experiment: IEDB peptide-MHC binding, purified MHC/direct/fluorescence; filed as Kd, often an IC50 or EC50 that approximates it; ≥ and ≤ were set here for values at or beyond the usual limits of such assays; conditions: source organism: Vibrio parahaemolyticus
HLA-A*30:01 = experiment: as above; conditions: source organism: Vibrio parahaemolyticus AQ3810
HLA-B*08:02 = experiment: as above; conditions: source organism: Vibrio parahaemolyticus AQ3810
HLA-B*46:01 [9] = experiment: as above; conditions: source organism: Vibrio parahaemolyticus
HLA-A*29:02 = experiment: as above; conditions: source organism: Vibrio parahaemolyticus AQ3810
HLA-B*48:01 = experiment: as above; conditions: source organism: Vibrio parahaemolyticus
HLA-B*51:01 [10] = experiment: as above
HLA-B*15:01 [11] = experiment: IEDB peptide-MHC binding, purified MHC/competitive/fluorescence; filed as Kd, often an IC50 or EC50 that approximates it; ≥ and ≤ were set here for values at or beyond the usual limits of such assays; conditions: source organism: Vibrio antiquarius
HLA-A*11:01 [12] = experiment: as above; conditions: source organism: Vibrio antiquarius
HLA-A*02:03 = experiment: as above; conditions: source organism: Vibrio antiquarius
HLA-A*02:01 [13] = experiment: as above; conditions: source organism: Vibrio antiquarius
HLA-B*15:17 [14] = experiment: as above; conditions: source organism: Vibrio antiquarius
HLA-B*57:01 [15] = experiment: as above; conditions: source organism: Vibrio antiquarius
HLA-A*02:06 = experiment: as above; conditions: source organism: Vibrio antiquarius
HLA-A*02:12 = experiment: IEDB peptide-MHC binding, purified MHC/direct/fluorescence; filed as Kd, often an IC50 or EC50 that approximates it; ≥ and ≤ were set here for values at or beyond the usual limits of such assays
HLA-A*02:01 [16] = experiment: IEDB peptide-MHC binding, purified MHC/competitive/fluorescence; ≥ and ≤ were set here for values at or beyond the usual limits of such assays; conditions: source organism: Zaire ebolavirus
HLA-C*07:02 = experiment: IEDB peptide-MHC binding, purified MHC/direct/fluorescence; filed as Kd, often an IC50 or EC50 that approximates it; ≥ and ≤ were set here for values at or beyond the usual limits of such assays; conditions: source organism: Mycobacterium tuberculosis variant bovis BCG str. Pasteur 1173P2
HLA-B*46:01 [17] = experiment: IEDB peptide-MHC binding, purified MHC/competitive/fluorescence; filed as Kd, often an IC50 or EC50 that approximates it; ≥ and ≤ were set here for values at or beyond the usual limits of such assays; conditions: source organism: Mycobacterium tuberculosis variant bovis BCG str. Pasteur 1173P2
HLA-B*83:01 = experiment: as above; conditions: source organism: Giardia lamblia ATCC 50803
HLA-B*15:42 = experiment: as above; conditions: source organism: Giardia lamblia ATCC 50803
HLA-B*45:06 = experiment: as above; conditions: source organism: Giardia lamblia ATCC 50803
[18] = source organism: Salmonella enterica
[19] = source organism: Salmonella enterica subsp. enterica serovar Typhimurium
[20] = source organism: Giardia lamblia ATCC 50803
[21] = source organism: West Nile virus
[22] = source organism: Mammarenavirus juninense
[23] = source organism: Burkholderia mallei
[24] = source organism: Burkholderia mallei ATCC 23344
[25] = source organism: Vibrio parahaemolyticus AQ3810
[26] = source organism: Vibrio parahaemolyticus
[27] = source organism: Vaccinia virus
[28] = source organism: Vibrio vulnificus
[29] = source organism: Vibrio vulnificus CMCP6
[30] = source organism: Marburg virus - Musoke, Kenya, 1980

## LLQGVPFHV
HLA-B*44:02
  Kd: ≥ 20000 nM
HLA-B*08:01
  Kd: ≥ 20000 nM
HLA-B*15:01 [1]
  Kd: ≥ 20000 nM
HLA-A*11:01 [2]
  Kd: ≥ 20000 nM
HLA-A*26:01
  Kd: ≥ 20000 nM
HLA-B*58:01; [18]
  Kd: ≥ 20000 nM
HLA-A*24:03
  Kd: ≥ 20000 nM
HLA-A*03:01; [18]
  Kd: ≥ 20000 nM
HLA-A*02:01 [3]; [19]
  Kd: 109 nM
HLA-A*31:01; [19]
  Kd: 1810 nM
HLA-A*01:01 [4]; [18]
  Kd: ≥ 20000 nM
HLA-B*07:02
  Kd: ≥ 20000 nM
HLA-B*27:05; [18]
  Kd: ≥ 20000 nM
HLA-B*40:01; [18]
  Kd: ≥ 20000 nM
HLA-A*69:01; [19]
  Kd: 289 nM
HLA-A*02:50; source organism: Salmonella enterica subsp. enterica serovar Paratyphi B str. SPB7
  Kd: ≤ 0.1 nM

## MPVSIPTPI
HLA-C*05:01; [20]
  Kd: ≥ 20000 nM
HLA-B*51:01 [5]; [20]
  Kd: 340 nM

## LAVSAYTPW
HLA-B*15:17 [6]
  Kd: 5 nM
HLA-C*03:03; [21]
  Kd: ≤ 1 nM
HLA-B*57:01 [7]
  Kd: 86 nM
HLA-B*35:01
  Kd: 5.7 nM
HLA-B*51:01 [5]; [21]
  Kd: ≥ 20000 nM

## RATQPAAEF
HLA-C*05:01; [22]
  Kd: 1740 nM
HLA-B*58:01; [22]
  Kd: 12.9 nM

## YLACKQHAL
HLA-A*02:01 [3]; [23]
  Kd: 62.5 nM
HLA-C*03:03; [24]
  Kd: 24 nM
HLA-A*69:01; [23]
  Kd: 292 nM
HLA-A*02:50; [24]
  Kd: ≤ 0.1 nM

## EIDTTIGEW
HLA-A*24:02
  IC50: ≥ 81700 nM
HLA-A*01:01 [8]
  IC50: ≥ 494000 nM

## LVAPHMAMM
HLA-B*18:01
  Kd: ≥ 20000 nM
HLA-A*30:01
  Kd: ≥ 20000 nM
HLA-B*08:02
  Kd: ≥ 20000 nM
HLA-B*58:01; [25]
  Kd: 810 nM
HLA-A*03:01; [26]
  Kd: ≥ 20000 nM
HLA-B*46:01 [9]
  Kd: 11000 nM
HLA-A*31:01; [26]
  Kd: ≥ 20000 nM
HLA-A*29:02
  Kd: 320 nM
HLA-A*01:01 [4]; [26]
  Kd: ≥ 20000 nM
HLA-B*27:05; [26]
  Kd: ≥ 20000 nM
HLA-B*48:01
  Kd: ≥ 20000 nM
HLA-B*40:01; [26]
  Kd: ≥ 20000 nM
HLA-B*51:01 [10]; [25]
  Kd: ≥ 20000 nM
HLA-B*15:01 [11]
  Kd: 96.5 nM
HLA-A*11:01 [12]
  Kd: ≥ 20000 nM
HLA-A*02:03
  Kd: 1140 nM
HLA-A*02:01 [13]
  Kd: 3410 nM
HLA-B*15:17 [14]
  Kd: 239 nM
HLA-B*57:01 [15]
  Kd: 1130 nM
HLA-A*02:06
  Kd: 53.2 nM

## TLNHNCINV
HLA-A*02:01 [3]; source organism: Cowpox virus
  Kd: 404 nM
HLA-A*02:12; [27]
  Kd: 19 nM
HLA-A*69:01; source organism: Cowpox virus
  Kd: 136 nM
HLA-A*02:50; [27]
  Kd: 0.2 nM

## KLTSYSAGL
HLA-A*02:01 [3]; [28]
  Kd: 21 nM
HLA-A*02:12; [29]
  Kd: 7 nM
HLA-A*69:01; [28]
  Kd: 15100 nM
HLA-A*02:50; [29]
  Kd: ≤ 0.1 nM

## KIDDMIEEV
HLA-C*05:01; source organism: Vaccinia virus WR
  Kd: 124 nM

## LFEVDNLTY
HLA-A*24:02
  IC50: 66500 nM
HLA-A*02:01 [16]
  IC50: ≥ 210000 nM
HLA-A*01:01 [8]
  IC50: 69100 nM

## FLLDGGAPF
HLA-C*03:03; source organism: Mycobacterium tuberculosis variant bovis BCG str. Pasteur 1173P2
  Kd: ≤ 1 nM
HLA-C*07:02
  Kd: 527 nM
HLA-B*46:01 [17]
  Kd: 21.2 nM

## FPMIIGSEL
HLA-C*05:01; [20]
  Kd: ≥ 20000 nM
HLA-B*51:01 [10]; [20]
  Kd: 2130 nM
HLA-B*83:01
  Kd: 156 nM
HLA-B*15:42
  Kd: ≥ 5000 nM
HLA-B*45:06
  Kd: ≥ 5000 nM

## FLLDYEGTL
HLA-A*02:01 [3]; [30]
  Kd: 6 nM
HLA-C*03:03; source organism: Orthomarburgvirus marburgense
  Kd: ≤ 1 nM
HLA-A*69:01; [30]
  Kd: 437 nM
